Assay results taken from patent publication US12258605B2, “Alkane oxidation by modified hydroxylases” (The California Institute of Technology, priority 2005, dated 2025).

Assay: Octane hydroxylation (rate, ttn, regio- and enantioselectivity)
Assay type: biochemical
Details: for Octane ttn / Octane Rate: 1% ethanol; for Octane Rate: initial rate of octanol formation over 1 min; for Octane % 2-octanol: regioselectivity
Protocol: Cell lysates for high throughput screening were prepared as described previously (Peters et al., J. Am. Chem. Soc. 125:13442 (2003); incorporated by reference herein). High-throughput dimethyl ether (DME) screens were performed in 96 well plates as described previously. Improved mutants were selected based on an increased signal compared to 9-10A (for the saturation mutagenesis libraries) and 1-12G (for the recombination library). Reactions on octane and propane were analyzed by gas chromatography as described.
Rates of ethanol formation were measured over 30 min using gas chromatography (GC) coupled to an electron capture detector (ECD) and are reported as nmol ethanol/min/nmol enzyme. Errors are at most 10%. Total turnover number (ttn) was measured using GC after completion of the reaction and is reported as nmol product/nmol protein. Errors are at most 10%. Initial rates of propanol and octanol formation were measured over 1 min by GC and are reported as nmol product/min/nmol protein. Errors are at most 15%. The “ee” of 2-octanol (main product) was measured by GC; the favored enantiomer is listed in parenthesis. Wild-type P450 BM-3 primarily produces 3- and 4-octanol. The yields were not sufficient for the determination of ee for wt BM-3. Mutant 9-10A contains amino acid substitutions R47C, V78A K94I, P142S, T175I, A184V, F205C, S226R, H236Q, E252G, R255S, A290V, and L353V.
In Table 5 the product distribution is determined as ratio of a specific alcohol product to the total amount of all alcohol products (given in %). The product distribution for ketones was similar to alcohol product distribution. The numbers reported here are the (%) total of all ketones relative to total products (alcohols+ketones). The favored enantiomer is listed in parentheses.
For the data shown in Table 6 the initial NADPH consumption rates were measured over 15 seconds at 340 nm as nmol NADPH/min/nmol protein. Octane reactions contained 100 nM P450, 166 uM NADPH, and 4 mM octane in 1% ethanol and potassium phosphate buffer. […] Errors are at most 10%. Initial rates were measured by GC over 1 minute as nmol total products/min/nmol protein. Octane reactions contained 100 nM P450, 500 uM NADPH, and 4 mM octane in 1% ethanol and potassium phosphate buffer. Propane reactions contained 1 uM P450, 500 uM NADPH, and propane-saturated potassium phosphate buffer. Coupling was determined by ratio of product formation rate to NADPH consumption rate. Total turnover numbers were determined as nmol product/nmol enzyme. Octane reactions contained 10-25 nM P450, 500 uM NADPH, and 4 mM octane in 1% ethanol and potassium phosphate buffer. Propane reactions contained 10-25 nM protein, potassium phosphate buffer saturated with propane, and an NADPH regeneration system containing 100 uM NADP+, 2 U/mL isocitrate dehydrogenase, and 10 mM isocitrate.
Twenty-one single active site mutants with increased activity towards either of these substrates were isolated. Mutations that improved the activity were found at amino acid positions L75 (I, W), A78 (T, F, S), A82 (T, S, F, I, C, G, L), F87 (I, V, L), T88 (C), T260 (N, L, S) and A328 (L, F, M). The single active site mutants of 9-10A were characterized by their altered regioselectivity towards octane. Each of these mutations produces a characteristic octanol product distribution as a result of their presence altering the active site geometry above the heme cofactor. Transformations were carried out using cell lysates. The mutations were generated in variant 9-10A (with amino acid mutations R47C, V78A, K94I, P142S, T175I, A184V, F205C, S226R, H236Q, E252G, R255S, A290V, L353V). “Others” indicates over oxidation products (ketones and aldehydes) with a similar product distribution as the alcohols. “Rate” was measured as nmol octanol/nmol P450/minute. “TTN” was measured as nmol octanol/nmol P450 produced in 4 hour reaction.
Mutations are relative to variant 9-10A (described above). Wild-type has a valine at position 78. […]

B1: 35-E11: P450 BM-3 variant, SEQ ID NO:7: 53-5H substitutions plus E464G and I710T (protein)
chain: TIKEMPQPKTFGELKNLPLLNTDKPVQALMKIADELGEIFKFEAPGCVTRYLSSQRLIKEACDESRFDKNLSQALKFFRDFSGDGLFTSWTHEINWKKAHNILLPSFSQQAMKGYHAMMVDIAVQLVQKWERLNADEHIEVSEDMTRLTLDTIGLCGFNYRFNSFYRDQPHPFIISMVRALDEVMNKLQRANPDDPAYDENKRQCQEDIKVMNDLVDKIIADRKARGEQSDDLLTQMLNGKDPETGEPLDDGNISYQIITFLIAGHETTSGLLSFALYFLVKNPHVLQKVVEEAARVLVDPVPSYKQVKQLKYVGMVLNEALRLWPTFPAFSLYAKEDTVLGGEYPLEKGDEVMVLIPQLHRDKTIWGDDVEEFRPERFENPSAIPQHAFKPFGNGQRACIGQQFALHEATLVLGMMLKHFDFEDHTNYELDIKETLTLKPEGFVVKAKSKKIPLGGIPSPSTGQSAKKVRKKAENAHNTPLLVLYGSNMGTAEGTARDLADIAMSKGFAPQVATLDSHAGNLPREGAVLIVTASYNGHPPDNAKQFVDWLDQASADEVKGVRYSVFGCGDKNWATTYQKVPAFIDETLAAKGAENIADRGEADASDDFEGTYEEWREHMWSDVAAYFNLDIENSEDNKSTLSLQFVDSAADMPLAKMHGAFSTNVVASKELQQPGSARSTRHLEIELPKEASYQEGDHLGVIPRNYEGTVNRVTARFGLDASQQIRLEAEEEKLAHLPLAKTVSVEELLQYVELQDPVTRTQLRAMAAKTVCPPHKVELEALLEKQAYKEQVLAKRLTMLELLEKYPACEMKFSEFIALLPSIRPRYYSISSSPRVDEKQASITVSVVSGEAWSGYGEYKGIASNYLAELQEGDTITCFISTPQSEFTLPKDPETPLIMVGPGTGVAPFRGFVQARKQLKEQGQSLGEAHLYFGCRSPHEDYLYQEELENAQSEGIITLHTAFSRMPNQPKTYVQHVMEQDGKKLIELLDQGAHFYICGDGSQMAPAVEATLMKSYADVHQVSEADARLWLQQLEEKGRYAKDVWAG
modifications: mutant P450 35-E11 protein sequence
  Octane ttn: 8000 nmol product/nmol protein
  Octane Rate: 420 nmol product/min/nmol protein
  Octane % 2-octanol: 89%
Ee of 2-octanol (main product), favored enantiomer (S)
  Octane % ee: 65%

B2: Wild-type BM-3: wild-type cytochrome P450 BM-3 from Bacillus megaterium, SEQ ID NO:1 (protein, listed as Bacillus megaterium)
chain: TIKEMPQPKTFGELKNLPLLNTDKPVQALMKIADELGEIFKFEAPGRVTRYLSSQRLIKEACDESRFDKNLSQALKFVRDFAGDGLFTSWTHEKNWKKAHNILLPSFSQQAMKGYHAMMVDIAVQLVQKWERLNADEHIEVPEDMTRLTLDTIGLCGFNYRFNSFYRDQPHPFITSMVRALDEAMNKLQRANPDDPAYDENKRQFQEDIKVMNDLVDKIIADRKASGEQSDDLLTHMLNGKDPETGEPLDDENIRYQIITFLIAGHETTSGLLSFALYFLVKNPHVLQKAAEEAARVLVDPVPSYKQVKQLKYVGMVLNEALRLWPTAPAFSLYAKEDTVLGGEYPLEKGDELMVLIPQLHRDKTIWGDDVEEFRPERFENPSAIPQHAFKPFGNGQRACIGQQFALHEATLVLGMMLKHFDFEDHTNYELDIKETLTLKPEGFVVKAKSKKIPLGGIPSPSTEQSAKKVRKKAENAHNTPLLVLYGSNMGTAEGTARDLADIAMSKGFAPQVATLDSHAGNLPREGAVLIVTASYNGHPPDNAKQFVDWLDQASADEVKGVRYSVFGCGDKNWATTYQKVPAFIDETLAAKGAENIADRGEADASDDFEGTYEEWREHMWSDVAAYFNLDIENSEDNKSTLSLQFVDSAADMPLAKMHGAFSTNVVASKELQQPGSARSTRHLEIELPKEASYQEGDHLGVIPRNYEGIVNRVTARFGLDASQQIRLEAEEEKLAHLPLAKTVSVEELLQYVELQDPVTRTQLRAMAAKTVCPPHKVELEALLEKQAYKEQVLAKRLTMLELLEKYPACEMKFSEFIALLPSIRPRYYSISSSPRVDEKQASITVSVVSGEAWSGYGEYKGIASNYLAELQEGDTITCFISTPQSEFTLPKDPETPLIMVGPGTGVAPFRGFVQARKQLKEQGQSLGEAHLYFGCRSPHEDYLYQEELENAQSEGIITLHTAFSRMPNQPKTYVQHVMEQDGKKLIELLDQGAHFYICGDGSQMAPAVEATLMKSYADVHQVSEADARLWLQQLEEKGRYAKDVWAG
  rate of octane hydroxylation: 30 min⁻¹
  Octane ttn: 150 nmol product/nmol protein
  Octane Rate: 30 nmol product/min/nmol protein
  Octane % 2-octanol: 17%
